The values that follow come from article PMC2137936, “Molecular Analysis of Thymopentin Binding to HLA-DR Molecules” (PLoS ONE, 2007).

No end group written: not given here.

The target of this experiment is human class II major histocompatibility complex DR molecules (HLA-DR) on EBV-transformed B cells (human (endogenous in EBV-transformed B …, UniProt P01903 26-254; P01911 30-266). As to the kind of experiment: flow cytometry on cells; 3x10^5 living EBV-transformed B cells incubated with various concentrations of FITC-labeled TP5 in PBS pH 7.4 with 1% BSA, 2 h, 37°C; washed; MFI read; apparent Kd from a double-reciprocal plot of the equilibrium data. The following applies: one partner purified.

B1: FITC-labeled thymopentin (TP5) (peptide)
peptide: RKDVY
modifications: also: FITC label, position not given here
notes: thymopentin (TP5), synthetic pentapeptide corresponding to position 32~36 of thymopoietin; also called FITC-labeled TP5; fluorescent-labeled TP5; source: synthetic peptide, conjugated with FITC (Sigma) and purified
With B1, the Kd was found to be 7.2 µM.
